Assay results: patent US8933202B2, “AXL antibodies” (U3 Pharma GmbH, priority 2007, dated 2015)

Tested on: NIH3T3-AXL cl.7 fibroblasts
Assay: Boyden chamber/transwell migration assay
Type: cell-based
Conditions: 10 μg/ml antibody, with or without 400 ng/ml Gas6, 7 h
Protocol: Transmigration experiments were performed in order to investigate whether the antibodies of the invention block cell migration. For this purpose, in the morning of day 1, NIH3T3-AXL cl.7 cells were seeded on 15 cm dished in normal growth medium, which in the evening was replaced by serum-reduced medium (DMEM, 0.5% FCS) in order to starve cells for 36 h. The next day, a FluoroBlock 96 well plate (Becton Dickinson #351164, 8 μm pore size) was coated with 10 μg collagen 1/ml 0.1 M acetic acid over night at 37° C. On day 3, the serum-reduced medium (DMEM, 0.5% FCS) was replaced by serum-free medium (DMEM, 0% FCS, 0.1% BSA) for another 4 h. Cells were harvested with 10 mM EDTA in PBS and pre-incubated with rat anti-AXL antibodies 4A6, 11B7 or 2A1 at a cell density of 4×10^5 cells/ml and an antibody concentration of 10 μg/ml for 45 min. 50 μl cell suspension (20,000 cells) per well were then placed in the top chamber of the FluoroBlock 96-well plate, 225 μl medium (DMEM, 0% FCS, 0.1% BSA) with or without 400 ng/ml mouse Gas6 (R&D Systems) were used per well in the bottom chamber. Cells were left to migrate for 7 h at 37° C. and stained afterwards with 4.2 μM calcein-AM (Molecular Probes #C3099) in PBS, 1 mM CaCl2, 1 mM MgCl2 for 1 h at 37° C. Using a Victor plate reader (Perkin Elmer), the fluorescence of each well was measured at a wavelength of 530 nm.

B1: 11B7: antagonistic rat anti-AXL monoclonal antibody, rat IgG1 (antibody, V domains shown)
VL: DIQMTQAPSSLPASLGDRVTITCRASQDIGNYLRWFQQKPGKSPRLMISGATNLAAGVPSRFSGSRSGSDYSLTISSLESEDMADYYCLQSKESPWTFGGGTKLELK
VH: EVQLQESGPGLVKPSQSLSLTCSVTGYSITSNYWGWIRKFPGDKMEWMGYITYSGSTSYNPSLKSRISITRDTSKNQFFLQLNSVTSEDTATYYCAITTFYYWGQGVMVTVSS
directed cell migration: reduced both basal and Gas6-induced migration
